What was measured:
…-GGG-C(fluorescein) [1] = assay: fluorescence polarization, 2 nM fluorescein-labelled peptide titrated with antibody
…-GGG-C(fluorescein) [2] = assay: fluorescence polarization, 2 nM labelled peptide titrated with antibody
[3] = biological target: WEKIRLR-GGG-C(fluorescein) (HIV1); assay: fluorescence polarization, 10 nM labelled peptide titrated with antibody
[4] = biological target: …-GGG-C(fluorescein) (HIV1); assay: as above
[5] = biological target: WEKIRLR-GGG-C(fluorescein) (HIV1); assay: fluorescence polarization, 10 nM fluorescein-labelled peptide titrated with antibody
[6] = biological target: …-GGG-C(fluorescein) (HIV1); assay: as above

What does the source list for “HA monoclonal antibody (clone 2-2.2.14, Thermo Scientific)”?
EC50 (read off the curve) (…-GGG-C(fluorescein) [1]): 1 to 2 nM; Kd (…-GGG-C(fluorescein) [2]): 0.58 nM

How did the Kd [3] turn out when “anti-HIV-1-p17 antibody (clone 32/1.24.89, Zeptometrix)” was run?
The Kd was 3300 nM.

What about the Kd [4] of the same substance?
The Kd was 24 nM.

And the EC50 (read off the curve) [5]?
Its EC50 (read off the curve) is 3000 nM.

What about the EC50 (read off the curve) [6] of the same substance?
The EC50 (read off the curve) was 30 nM.
